Source: the nanobody polyreactivity screen of Harvey et al. (2022)

Assay: yeast display, Sf9 membrane polyspecificity reagent, FACS + sequencing; frameworks hold sequencing errors
How it was run: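 After 36–48 hours of galactose induction, yeast (Saccharomyces cerevisiae BJ5465) displaying a synthetic nanobody library were stained at 4 °C for 1 hour with 10% biotinylated, detergent-solubilized Sf9 membrane reagent. Streptavidin microbeads enriched the stained cells before FACS sorting into low and high (top ~1%) gates on anti-HA and streptavidin fluorescence. Each clone's polyreactivity label reflects its gate of origin.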

Row | Sequence | polyreactivity (PSR sort gate)
1 | QVQLVESGGGLVQAGGSLRLSCAASGRTFYSYTMGWYRQAPGKDRELVAAITRSGGRTYYADSVKGRFTISRDNAKNTVYLQMNSLKPDDTAVYYCAKGWVSYWRYKNEYWGQGTQVTVSS | high polyreactivity
2 | QVQLVESGGGLVQAGGSLRLSCAASGRIFKYNAMGWYRQAPGKERELVAAISGGGSTNYADSVKGRFTISRDNAKNTVYLQMNSLKPEDTAVYYCAKGYRRVYGPFYYWGQGTQVTVSS | low polyreactivity
3 | QVQLVESGGGLVQAGGSLRLSCAASGRTFYYYAMGWYRQAPGKERELVASISRRGGSTYYADSVKGRFTISRDNAKNTVYLQMNSLKPEDTAVYYCAASHYHGYSRMDYWGQGTQVTVSS | high polyreactivity
4 | QVQLVESGGGLVQAGGRLRLSCAASGLIFYDNMGWYRQPPGKERELVAAITWSGGSTYYADSVKGRFTISRDNAKNTVYLQMNSLKPEDTAVSYCNADLDSGYGSYDYWGQGTQVTVSS | low polyreactivity
5 | QVQLVESGGGLVQAGGSLRLSCAASGSIFDSYAMGWYRQAPGKERELVATINTSGGSTYYADSVKGRFTIHDNAKNTVYLQKNSLKPEDTAVYYCNAGRWVYWQNNFGDYGYWGQGTQVTVSS | low polyreactivity
6 | QVQLVESGGGLVQAGGSLRLSCAASGLIFSPYAMGWYRQAPGKEREFVAAITSRGGTYYADSVKGRFTISRDNAKNTVYLQMNSLKPEDTAVYYCAAKSLYSKRQQYEYWGQGTQVTVSS | low polyreactivity
7 | QVQLVESGGGLVQAGGSLRLSCAASGLTFNWNAMGWYRQAPGKERELVAAIRSSGGSTYADSVKGRFTISRDNAKNTVYLQMNSLKPEDTAVYYCAARSRVPPAGPRYDYWGQGTQVTVSS | high polyreactivity
8 | QVQLVESGGGLVQAGGSLRLSCAASGSTFGSYAMGWYIQAPGKERELVAAINWSGGITYYADSVKGRFTISRDNAKNTVYLQMNSLKPEDTAVYYCAADTRTYYYGSTYDYEYWGQGTQVTVSS | low polyreactivity
9 | QVQLVESGGGLVHAGGSLRLSCAASGFIFDTYLMGRYRQAPGTERELVAAISRTGGRTYYADSVKGRFTISRDNAKYTVYLQMNSLNPEDTAVYYCNRAPHIAPEDYDYWGQGTQVTVSS | high polyreactivity
10 | QDHLVESGGGLVQAGGSLRLSCAASGGIFYGYAMGWYRQAPGKERELVAAISTSDASTYYADSVKGRFTFSRDNAKNTVFVQMNSLKPEATAVYYCATDLPDGYDYWGQGTQVTVSS | low polyreactivity
11 | QVQLVESGGGLVQAGGSLRLSSAASGFTFVSYAMGWYRQAPGKERELVASISKRGGTTYYADSVKGRFTISRDNAKKTVFLQMNSLKPDDTAVYYCNARDTRRYVTYDSGYDYWGQGTQVTVSS | high polyreactivity
12 | QVQLVESGGGLVQAGGSLRLSCAASGSTFYYYAMGWYRQAPGKERELVAAISVRAGITYYADSVKGRFTISRDNAKNTVYLQMNSLKPEDTAVYYCAKDHWTTSYDEGDYWGQGTQVTVSS | low polyreactivity
13 | QVQLVESGGGLVQAGGSLRLSCAASGGTFSYYAMGCYRQAPGKERELVASISTDGGSTYYADSVKGRFTISRDNAKNTVYLQMNSLKPEDTAVYYCNARPRGYSDRYGYWGQGTQVTVSS | high polyreactivity
14 | QVQLVESGGGLVKARGSLRLSFAASGSTFLVYAMGWYRQAPGKEREFVAAITWSGGYTYYADSVKGRFTISRDNAKNTVYLQMNSLKPEDTSVYYSAAEIQRTYSWEYPYEMYWGQGTQVTVSS | high polyreactivity
15 | QVQLVESGGGLVQAGGSLRLSCAASGSIIRDNAMGWYRQAPGKERELVAAISVSGGRTYYADSVKGRFTISRDNAKNTVYLQMNSLKPEDTAVYYCAALRRPSYPGRFAELDYWGQGTQVTVSS | high polyreactivity
16 | QVQLVESGGGLVQAGGSLRLSCAASGRTFSRYAMGWYRQAPGKERELVAAISSSGGSTYYADSVKGRFTISRDNAKNTVYLQMNSLKPEDTAVYYCAKYFIRDNRYDYWGQGTQVTVSS | high polyreactivity
17 | QVQLVESGGGLVQAGGSLRLSCAASGLTFSLYAMGWYRQAPGKERELVAAISSSGSTYYADSVKGRFTISRDNAKNTVYLQMNILKPEDTAVYYFAADAPWWIDPIAGNYWGQGTQVTVSS | high polyreactivity
18 | QVQLVESGGGLVHPGGSLRLSCAASGSTFGCNAMGWYRQAPGKERELVSAITFSGGTTYYADSVKGRFTISRDNAKNTVYLQMNSLKPEDTAVYYCNAEWWYQYTGPFAPRGEDYLGQGTQVTVSS | low polyreactivity
19 | QVQLVESGGGLVQAGGSLRLSCAASGNIFRINGMGWYRQAPGKERELVASITRSGSTYYADSVKGRFTISRDNANNTVYLKMNSLKPEDTAVYYCAADSRRYGVRFDYWGQGTQVTVSS | low polyreactivity
20 | QVQLEESGGGLVQAGGSLRLSCAASGITFEAYAMGWYRQAPGKERELVAAIRSSGTSTYYADSVMGRFTISRDNAKNTVYLQMNSLKPEDTAVYYCNRARSSSRYDYWGQGTQVTVSS | low polyreactivity
21 | QVQHVESGGGLVQAGGRLRLSCAASGSIFVAYAMGWSRTAPGKERELVAAITYSAGSTYYADSVKGRITISRDNAKNTVYLQMNSLKPEDTAVYYCAADAMVFSFIGYEYWGQGTQVTVSS | low polyreactivity

Row | Sequence | polyreactivity (PSR sort gate)
22 | QVQLVESGGRLVQAGGSLRLSCAASGSTFGSYTMGWYRQAPGKERELVAAINWSGGNTYYADSVKGRFTISRDYAKNTVYLQMNSLKPEDTAVYFCAAAYYIYGFEGDYWGHGTQVTVSS | low polyreactivity
23 | QVQIVESGGGLVHAGGSLRLSCAASGSIYKRYAMGWYRQAPGKERELVAAIRWSGGSTYYADSVKGRFTISRDNAMNTVFLQMNSLKPEDTAVYYCARDGWGRLYGMGYWGQGTQVTVSS | low polyreactivity
24 | QVQLVESGGCLVQAGGSLRLSSPASGITFPDYDMGWYRQAPGKERELVAAITYRSGSTYYADSVKGRFTISRDNAKNTVYFQMNSLKPEDTAVYYCAAKRFLLRYYTKQYNYWGQGTQVTVSS | high polyreactivity
25 | QGQLVESGGGLVQAGGRLRLSCAASGSTFYGNAMGWYRQAPGKERELVAAITWGDASTYYADSVKGRFTISRDNAKNPVYLQMNSLKPEDTAVSYCAVDESYGSSSDMDYWGQGTQVTVSS | low polyreactivity
26 | QVQLVESGGGLVQAGGSLRLSCAASGRIFLYYAMGWYRQAPGKERELVAASTYTDGSTYYADSVKGRFTISRDNAKNTVYLQMNSLKPEDTAVYYCAAEFYYYDYWGQGTQVTVSS | low polyreactivity
27 | QVQLVESGGGLVQAGGSLRLSCAASGFIFDYYAMGWYRQAPGKERELVAAITSRSGSTYYADSVKGRFTISRDNAKNTVYLQMNSLKPEDTAVYYCAAVYPDYSSARYDYWGQGTQVTVSS | high polyreactivity
28 | QVQLVESGGGLVQAGGRLRLSCAASGSTFVTNYMGRYRQAPGKERELVAAISSGTSTNYADSVKGRFTISRDNAKNTVYLQMNSLTREDTPVYYCAADSLKRYDYWGQGTQVTVSS | low polyreactivity
29 | QVQLVESGGGLVQAGGSLRLSCAAYGLTFGYYVMGSYRQAPGKERELVADINFSGGSTYYADSVKGRFTISRDNAKNTVYLHMNSLKTEDTAVYYCNAVVYRFTVSSGYESWGEGTQVTVSS | low polyreactivity
30 | QVQLVESGGGLVQAGGSLRLSCAASGYTFDDYEMGWYRQAPGKERELVAAISRGGSTYYADSVKGRFTISRDNEKNTVYFQMNSLKPEDTAVYYCGAVYRVRKITYDYWGQGTQVTVSS | high polyreactivity
31 | QVQLVESGGGLVQAGGSLRLSCAASGSIFPYAMGWYRQAPGKERELVAAITSGVRTNYADSVKGRFTISRDNAKNTVYLQIYSLKPEDTAVYYCAARYFPHYYSKYDYWGQGTQVTVSS | low polyreactivity
32 | QVQLVESGGGLVQAGGSLRLICAASGSTFQLTAMGWYIQAPGTEREFVASITDSGGRTYYADSVKGRFTISRDNANNTVYLQMNSLKPVDTAVYYCNTAGAAERRRAYDHDYWGQGTQVTVSS | high polyreactivity
33 | QVQLEESGGGLVQAGGSLRLSCAASGRTSRVYAMGWYRQAPGKERELVAAITWRGGNTYYADSVKGRFTISRDNAKNTVYLQMNSLKPEDTAVYYCARDNGSPYHYYYWGQGTQVTVSS | high polyreactivity
34 | QVQLVESGGGLVQAGGSLSLSFAASGRTFGYYDMGRYRQAPGKEREFVAAITWSGGNTYADSVKGRFTISRDNAKNTVYLQMNSLKPEDTAVYYCNAVVRAYYTSIWVPRYDYWGQATQVTVSS | high polyreactivity
35 | QVQLVESGGGLVQAGGSLRLSCAASGSTFGEYAMGWYRQAPGKERELVAVITWRDDSTYYADSVKGRFTISRDNAKNTVYLQMNSLKPEDTAVYYCNADIYQGNAGYIEVGTFGEYDYWGQGTQVTVSS | low polyreactivity
36 | QVQLVESGGGLVQAGGSLRLSCAASGSIFIYNAMGWYRQAPGKERELVASITYRGGSTYYADSVKGRFTISRDKAKNTVYLQMNSLKPEDTAVYYCNAPQYFSYSWPYPREYDYWGQGTQVTVSS | high polyreactivity
37 | QVQLVESRGGLVQAGGSLRLSCPDSGSNLLSYAMGWYRQAPGKERELVAAITTRDGSTYYADSVKGRFTISRDNAKYTVYLQMTSLKPEDTAVYYCNVDARSSYDYWGQGTQVTVSS | low polyreactivity
38 | QVQLVESGGGLVQAGGSLRLSCAASGIIFPVYDMGWYRQAPGKERELVASITDSGGSTSYADSVKGRFTISRDNAKNTVYLQMNSLKPEDTAVYYCAVTDSDTNYYGYLSYDYWGQGTQVTVSS | low polyreactivity
39 | QVQLVESGGGLVQAGGSLRLSCAASGFTFGSNDMGWYRQAPVKERELVAAIDGSGDTYYADSVKGRFTISRDNAKNTVYLQMNSLKPEDTAVYYCAAGYTYYSLYGYWGQGTQVTVSS | low polyreactivity
40 | QVQLVESGGGLVQAGGSLRLSCAASGLTFGWNAMGWYRQAPGKERELVAGITSDTITHYADSVKGRFTISRDNAKNTVYLQMNSLKPEDTAVYYCAVPRGVASLQKVEFGYWGQGTQVTVSS | low polyreactivity
41 | QVQLVESGGGLVQAGGSLRLSCAASGSIFWSNAMGWYRQAPGKERELVAAINQSGTSTYYADSVKGRFTISRDNAKNTVYLQMNSLKTEDTAVYYCAADQVGWTYDYWGQGTQVSVSS | low polyreactivity
